Measured values: article PMC2932737, “DNA Clasping by Mtb HU”

Columns and labels:
[1] = target: HupBMtb (HU, MDP-1, HLPMt) (Mycobacterium tuberculosis H37Rv) (UniProt P9WMK7); assay: agarose EMSA; conditions: scale: fold higher affinity than for linear pBSK
[2] = target: HupBMtb (HU, MDP-1, HLPMt) (Mycobacterium tuberculosis H37Rv) (UniProt P9WMK7); assay: EMSA
HupBMtbN [3] = target: T1, HupBMtbN (Mycobacterium tuberculosis H37Rv, UniProt P9WMK7 3-97); assay: EMSA; 10 mM KCl; conditions: protein: recombinant, tags: His (pET28a, NdeI/HindIII), chain copies: 2, label: 5' 32P, blunt
[4] = target: T2, HupBMtb (HU, MDP-1, HLPMt) (Mycobacterium tuberculosis H37Rv, UniProt P9WMK7 3-216); assay: EMSA; 200 mM KCl; conditions: protein: recombinant, tags: His (pET28a, NdeI/HindIII), chain copies: 2, label: 5' 32P, blunt
[5] = target: T2, HupBMtb (HU, MDP-1, HLPMt); assay: EMSA; 10 mM KCl; conditions: protein: recombinant, tags: His (pET28a, NdeI/HindIII), chain copies: 2, label: 5' 32P, blunt
[6] = target: T2, HupBMtb (HU, MDP-1, HLPMt); assay: EMSA; 0-300 nM protein; two complexes; conditions: protein: recombinant; tags: His (pET28a, NdeI/HindIII); chain copies: 2; label: 5' 32P; blunt
HupBMtbN [7] = target: T1, HupBMtbN; assay: EMSA; 0-300 nM protein; single complex; conditions: protein: recombinant; tags: His (pET28a, NdeI/HindIII); chain copies: 2; label: 5' 32P; blunt
[8] = target: T2, HupBMtb (HU, MDP-1, HLPMt); assay: EMSA; 0-300 nM protein; negligible; conditions: protein: recombinant; tags: His (pET28a, NdeI/HindIII); chain copies: 2; label: 5' 32P; blunt
[9] = 48 bp duplex with nick in the lower strand
[10] = duplex with 1 nt gap in the lower strand
[11] = duplex with 2 nt gap in the lower strand

T1 sequence (P9WMK7 3-97): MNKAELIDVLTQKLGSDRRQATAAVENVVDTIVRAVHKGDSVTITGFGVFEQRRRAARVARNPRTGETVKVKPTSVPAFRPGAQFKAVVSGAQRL
T2 sequence (P9WMK7 3-216): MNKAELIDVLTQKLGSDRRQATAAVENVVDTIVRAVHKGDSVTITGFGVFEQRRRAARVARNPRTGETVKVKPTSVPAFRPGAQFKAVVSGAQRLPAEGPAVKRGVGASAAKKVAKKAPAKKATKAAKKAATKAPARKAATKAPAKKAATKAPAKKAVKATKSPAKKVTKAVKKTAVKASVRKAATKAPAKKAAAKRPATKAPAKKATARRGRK
Sequence of HupBMtb (HU, MDP-1, HLPMt) (Mycobacterium tuberculosis H37Rv) (P9WMK7 3-216): as above

## pBluescript SK supercoiled
[1]
  binding signal: 1.5

## CTCTGTGACTGGTGTGACCTGGGAGAGAGAAGTTTTTTTAAGAACGTT (double strand) [A1 ds DNA (SH_1+SH_2)]
[2]
  Kd: 42 nM

B1: A2 nick DNA (SH_1+SH_3+SH_4) (structured_DNA)
DNA 1: CTCTGTGACTGGTGTGACCTGGGAGAGAGAAGTTTTTTTAAGAACGTT
DNA 2: TCCCAGGTCACACCAGTCACAGAG
DNA 3: AACGTTCTTAAAAAAACTTCTCTC
HupBMtbN [3]; [9]
  Kd: 1000 nM
[4]; [9]
  Kd: 65 nM

B2: A3 1-nt gap DNA (SH_1+SH_3+SH_5) (structured_DNA)
DNA 1: B1 DNA 1
DNA 2: TCCCAGGTCACACCAGTCACAGAG
DNA 3: AACGTTCTTAAAAAAACTTCTCT
HupBMtbN [3]; [10]
  Kd: 725 nM
[5]; [10]
  Kd: 55 nM

B3: A4 2-nt gap DNA (SH_1+SH_3+SH_6) (structured_DNA)
DNA 1: B1 DNA 1
DNA 2: TCCCAGGTCACACCAGTCACAGAG
DNA 3: AACGTTCTTAAAAAAACTTCTC
HupBMtbN [3]; [11]
  Kd: 536 nM
[5]; [11]
  Kd: 60 nM
[4]; [11]
  Kd: 88 nM

B4: A7 64% AT DNA (SH_12+SH_13) (dsDNA)
DNA 1: TCAAATCTAATCGGAGTCGTTTTGA
DNA 2: TCAAAACGACTCCGATTAGATTTGA
[6]
  binding result: binds
HupBMtbN [7]
  binding result: binds

B5: A6 84% GC DNA (SH_10+SH_11) (dsDNA)
DNA 1: GCCCGGCTGCACCGCGCCACCGCGG
DNA 2: CCGCGGTGGCGCGGTGCAGCCGGGC
[8]
  binding result: no binding
